± gives the standard deviation of the averaged measurements.
What was measured:
[1] = test system: Saccharomyces cerevisiae; assay: protein stability index of tFT-peptide fusion (C-terminal peptide) (PSI (0-1 scale)); higher = more stable (slower turnover)
Protocol: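 MPS profiling in S. cerevisiae of the tFT-X12 degron library: putative degron peptides plus stable controls, 12 aa, fused to the C-terminus of a sfGFP-mCherry timer. Cells are FACS-sorted into 8 mCherry/sfGFP bins and deep-sequenced. PSI runs from 0 (unstable) to 1 (stable). Backgrounds are wild type, das1Δ and doa10Δ at 30 °C, and wild type, das1Δ, cdc34-1 and cdc53-1 at 37 °C; 2-3 technical replicates each.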

[2] = test system: Saccharomyces cerevisiae; assay: as above; details: genetic background: wild type; temperature: 30 C
[3] = genetic background: cdc34-1, temperature: 37 C
[4] = genetic background: cdc53-1, temperature: 37 C
[5] = genetic background: das1 deletion, temperature: 30 C
[6] = genetic background: das1 deletion, temperature: 37 C
[7] = genetic background: doa10 deletion, temperature: 30 C
[8] = genetic background: wild type, temperature: 30 C
[9] = genetic background: wild type, temperature: 37 C
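Note: PSI is a weighted mean of sequencing reads over stability bins, variants kept only with over 10 reads, mCherry proximal and sfGFP distal, peptide attached via GGGS linker.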

Sequence	protein stability index [1, 3]	protein stability index [1, 4]	protein stability index [1, 5]	protein stability index [1, 6]	protein stability index [1, 7]	protein stability index [1, 8]	protein stability index [1, 9]	protein stability index [2]
ESCFGMAIFCVT	0.526 ± 0.012	0.571 ± 0.011	0.37 ± 0.03	0.5841 ± 0.0045	0.301 ± 0.012	0.334 ± 0.03	0.525 ± 0.01	0.466 ± 0.024
ESCIFLMWLTVL	0.177 ± 0.013	0.273 ± 0.024	0.222 ± 0.032	0.379 ± 0.0044	0.0814 ± 0.021	0.0868 ± 0.012	0.0936 ± 0.013	0.136 ± 0.0054
ESFIKFALYIVN	0.557 ± 0.052	0.604 ± 0.0067	0.435 ± 0.023	0.621 ± 0.014	0.348 ± 0.013	0.358 ± 0.036	0.5099 ± 0.00084	0.419 ± 0.0082
EVVFHVFLVGLV	0.314 ± 0.015	0.451 ± 0.015	0.292 ± 0.035	0.512 ± 0.018	0.203 ± 0.012	0.274 ± 0.013	0.464 ± 0.0058	0.362 ± 0.0059
FALPPSLLLLSA	0.544 ± 0.019	0.557 ± 0.013	0.442 ± 0.027	0.5917 ± 0.0017	0.418 ± 0.0085	0.449 ± 0.016	0.55962 ± 0.00044	0.501 ± 0.026
FCCLIGYIWYGW	0.45071 ± 0.00045	0.5083 ± 0.00082	0.392 ± 0.041	0.527 ± 0.013	0.344 ± 0.0071	0.363 ± 0.011	0.514 ± 0.039	0.488 ± 0.019
FCFLLLSWAFWV	0.155 ± 0.026	0.205 ± 0.0084	0.171 ± 0.03	0.27279 ± 7.6e-05	0.0977 ± 0.011	0.103 ± 0.026	0.1757 ± 0.00047	0.159 ± 0.048
FCFVRGLLFLFF	0.476 ± 0.0094	0.574 ± 0.065	0.383 ± 0.035	0.5423 ± 0.0025	0.386 ± 0.013	0.36 ± 0.034	0.506 ± 0.023	0.442 ± 0.06
FCIYLCLSTSIT	0.0795 ± 0.0063	0.221 ± 0.0083	0.14 ± 0.036	0.306 ± 0.025	0.119 ± 0.0062	0.129 ± 0.027	0.247 ± 0.0029	0.374 ± 0.084
FCSLLVLLFFGV	0.395 ± 0.042	0.4792 ± 0.0038	0.334 ± 0.018	0.473 ± 0.0052	0.323 ± 0.025	0.337 ± 0.022	0.466 ± 0.013	0.39365 ± 4e-05
FELSVSVFQSVV	0.318 ± 0.048	0.388 ± 0.0039	0.374 ± 0.023	0.3368 ± 0.002	0.409 ± 0.048	0.384 ± 0.044	0.318 ± 0.0051	0.338 ± 0.031
FERVEYEVLGIG	0.35 ± 0.0065	0.441 ± 0.037	0.394 ± 0.0079	0.449 ± 0.017	0.395 ± 0.012	0.38 ± 0.017	0.44 ± 0.021	0.415 ± 0.014
FFASAAVHLVTC	0.513 ± 0.01	0.521 ± 0.032	0.435 ± 0.02	0.559 ± 0.014	0.312 ± 0.0063	0.34 ± 0.016	0.491 ± 0.0037	0.4533 ± 0.0034
FFLLLVGFSVLG	0.223 ± 0.071	0.265 ± 0.012	0.238 ± 0.024	0.421 ± 0.024	0.224 ± 0.024	0.222 ± 0.021	0.373 ± 0.0038	0.349 ± 0.0064
FFLLTCFLLPSV	0.44 ± 0.03	0.512 ± 0.013	0.346 ± 0.036	0.526 ± 0.014	0.328 ± 0.013	0.341 ± 0.024	0.514 ± 0.014	0.441 ± 0.015
FFLSFRLFSILL	0.304 ± 0.033	0.359 ± 0.021	0.342 ± 0.021	0.413 ± 0.014	0.412 ± 0.027	0.292 ± 0.017	0.368 ± 0.011	0.3114 ± 0.0026
FFLVILSWWVGE	0.182 ± 0.023	0.225 ± 0.056	0.197 ± 0.036	0.345 ± 0.028	0.185 ± 0.0019	0.205 ± 0.052	0.31 ± 0.017	0.242 ± 0.017
FFMLWCRVLLRL	0.144 ± 0.026	0.102 ± 0.017	0.215 ± 0.014	0.278 ± 0.0028	0.18536 ± 0.00012	0.145 ± 0.031	0.167 ± 0.0071	0.2187 ± 0.002
FFVFPFGLLFLS	0.504 ± 0.058	0.515 ± 0.013	0.433 ± 0.023	0.583 ± 0.011	0.2525 ± 0.0007	0.232 ± 0.02	0.385 ± 0.0085	0.342 ± 0.0054
FFVKGFRLLVFQ	0.454 ± 0.039	0.481 ± 0.013	0.421 ± 0.04	0.573 ± 0.014	0.461 ± 0.019	0.384 ± 0.014	0.516 ± 0.046	0.47 ± 0.015

Sequence	protein stability index [1, 3]	protein stability index [1, 4]	protein stability index [1, 5]	protein stability index [1, 6]	protein stability index [1, 7]	protein stability index [1, 8]	protein stability index [1, 9]	protein stability index [2]
FIGVLVYICREG	0.1903 ± 0.0018	0.359 ± 0.084	0.254 ± 0.017	0.44 ± 0.024	0.187 ± 0.0062	0.228 ± 0.037	0.373 ± 0.018	0.329 ± 0.032
FITFLVFVGFFL	0.393 ± 0.06	0.421 ± 0.0078	0.313 ± 0.022	0.495 ± 0.026	0.263 ± 0.0094	0.295 ± 0.026	0.448 ± 0.0071	0.355 ± 0.034
FKKIKGKIEKKN	0.736 ± 0.021	0.897 ± 0.023	0.609 ± 0.042	0.726 ± 0.05	0.339 ± 0.061	0.336 ± 0.012	0.448 ± 0.0082	0.481 ± 0.023
FKWVSRIRLLDA	0.485 ± 0.014	0.566 ± 0.049	0.51 ± 0.023	0.483 ± 0.0055	0.24 ± 0.028	0.246 ± 0.016	0.411 ± 0.017	0.316 ± 0.027
FKYRVPLVGVVK	0.30503 ± 3.5e-05	0.317 ± 0.033	0.245 ± 0.029	0.43316 ± 0.00012	0.203 ± 0.018	0.25 ± 0.02	0.3897 ± 0.00038	0.347 ± 0.0072
FLDYLLFIFFFF	0.431 ± 0.054	0.519 ± 0.041	0.419 ± 0.032	0.522 ± 0.0072	0.464 ± 0.0094	0.392 ± 0.037	0.473 ± 0.039	0.415 ± 0.008
FLFQYLCIISSL	0.0463 ± 0.007	0.166 ± 0.037	0.133 ± 0.046	0.233 ± 0.023	0.0866 ± 0.028	0.0716 ± 0.026	0.161 ± 0.013	0.217 ± 0.037
FLGPMRVLVSSV	0.568 ± 0.03	0.606 ± 0.032	0.424 ± 0.03	0.6003 ± 0.0019	0.401 ± 0.015	0.425 ± 0.026	0.565 ± 0.0044	0.522 ± 0.073
FLLCRVFVLLRS	0.043 ± 0.019	0.0441 ± 0.015	0.13 ± 0.037	0.215 ± 0.0095	0.1414 ± 0.0013	0.102 ± 0.018	0.125 ± 0.038	0.163 ± 0.045
FLLPWLRPVFFF	0.522 ± 0.056	0.607 ± 0.055	0.567 ± 0.013	0.69 ± 0.0074	0.219 ± 0.0046	0.218 ± 0.024	0.369 ± 0.029	0.293 ± 0.011
FLLVGLLIVGCG	0.175 ± 0.0045	0.272 ± 0.0014	0.206 ± 0.027	0.349 ± 0.018	0.166 ± 0.025	0.206 ± 0.026	0.334 ± 0.0082	0.225 ± 0.12
FLSRVVLVVLLV	0.258 ± 0.018	0.333 ± 0.006	0.245 ± 0.029	0.43 ± 0.02	0.196 ± 0.015	0.215 ± 0.034	0.339 ± 0.029	0.288 ± 0.026
FLVIILFFLYMR	0.144 ± 0.043	0.0943 ± 0.015	0.176 ± 0.042	0.232 ± 0.023	0.398 ± 0.017	0.184 ± 0.041	0.185 ± 0.02	0.209 ± 0.011
FLYSVLLICKFI	0.214 ± 0.029	0.258 ± 0.016	0.224 ± 0.037	0.389 ± 0.013	0.118 ± 0.016	0.0757 ± 0.035	0.0829 ± 0.034	0.135 ± 0.12
FMANRYICQKTL	0.522 ± 0.074	0.731 ± 0.018	0.635 ± 0.026	0.727 ± 0.01	0.0893 ± 0.023	0.0967 ± 0.022	0.168 ± 0.017	0.185 ± 0.012
FPCRNFMVFFCF	0.425 ± 0.029	0.442 ± 0.008	0.43 ± 0.035	0.505 ± 0.0097	0.211 ± 0.0036	0.204 ± 0.0085	0.285 ± 0.03	0.29 ± 0.03
FPFPLSSFLLLY	0.385 ± 0.015	0.401 ± 0.018	0.41 ± 0.032	0.516 ± 0.011	0.415 ± 0.028	0.331 ± 0.019	0.444 ± 0.0087	0.4195 ± 0.0039
FRSMFLFLNLLF	0.458 ± 0.05	0.3523 ± 0.00055	0.391 ± 0.048	0.73 ± 0.02	0.559 ± 0.015	0.371 ± 0.019	0.574 ± 0.025	0.412 ± 0.014
FSFEGVLVPLLV	0.31519 ± 3.7e-05	0.301 ± 0.043	0.288 ± 0.036	0.4113 ± 0.00044	0.249 ± 0.0058	0.287 ± 0.033	0.384 ± 0.0086	0.396 ± 0.015
